The values that follow come from PMC2064834 (The Journal of Cell Biology, 2007).

One series has as its target T1, Hs-laforin (Homo sapiens, UniProt O95278).
T1 sequence (O95278 1-331): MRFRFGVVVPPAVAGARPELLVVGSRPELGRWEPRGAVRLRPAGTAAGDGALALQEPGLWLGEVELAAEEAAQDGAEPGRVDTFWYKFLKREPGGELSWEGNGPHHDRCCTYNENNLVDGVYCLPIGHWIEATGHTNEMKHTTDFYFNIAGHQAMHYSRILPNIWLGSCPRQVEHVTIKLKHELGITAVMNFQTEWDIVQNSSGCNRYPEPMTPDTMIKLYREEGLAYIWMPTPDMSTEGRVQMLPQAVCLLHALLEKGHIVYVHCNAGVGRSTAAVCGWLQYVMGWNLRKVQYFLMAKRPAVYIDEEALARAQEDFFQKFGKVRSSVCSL
The series is described as follows: p-NPP hydrolysis, absorbance at […] nm. Format: biochemical. The settings on record: pH 5.5; 37°C; 2 mM DTT; artificial substrate.

Substrate in the series “purified protein”: O=[N+]([O-])c1ccc(OP(=O)(O)O)cc1
The series is described as follows: purified protein. To be noted: pH 6.0, 37°C, 2 mM DTT, artificial substrate.

In general, Km refers to the concentration of substrate that gives half-maximal velocity. Consider `O=[N+]([O-])c1ccc(OP(=O)(O)O)cc1` [p-NPP], for which the Km at Hs-laforin is 323 µM.

B1: Δ52-SEX4 (Arabidopsis thaliana) (protein)
chain: AVSESKSSSEMSGVAKDEEKSDEYSQDMTQAMGAVLTYRHELGMNYNFIRPDLIVGSCLQTPEDVDKLRKIGVKTIFCLQQDPDLEYFGVDISSIQAYAKKYSDIQHIRCEIRDFDAFDLRMRLPAVVGTLYKAVKRNGGVTYVHCTAGMGRAPAVALTYMFWVQGYKLMEAHKLLMSKRSCFPKLDAIRNATIDILTGLKRKTVTLTLKDKGFSRVEISGLDIGWGQRIPLTLDKGTGFWILKRELPEGQFEYKYIIDGEWTHNEAEPFIGPNKDGHTNNYAKVVDDPTSVDGTTRERLSSEDPELLEEERSKLIQFLETCSEAEV
As usually defined, the Vmax is the top rate of the reaction or transport when substrate is in excess. As usually defined, the kcat is the number of substrate molecules converted per active site and unit of time at saturation. Usually kcat/Km stands for the second-order rate constant that governs catalysis at low substrate concentration. For the molecule B1, in the series “purified protein”, the Km was 410 µM, the Vmax is 2.41 µmol/min/mg, the kcat is 1.54 s⁻¹ and the kcat/Km is 3756 M⁻¹ s⁻¹.
